Test results reported in patent US6861509 (Biogen, dated 2005).

Biological target: T1, human RetL2 (insert of clone DSW240) expressed on 293/EBNA cells (human, UniProt O00451 22-444)
T1 construct: no cleavage sites are stated; also called retL2 expression plasmid
T1 sequence: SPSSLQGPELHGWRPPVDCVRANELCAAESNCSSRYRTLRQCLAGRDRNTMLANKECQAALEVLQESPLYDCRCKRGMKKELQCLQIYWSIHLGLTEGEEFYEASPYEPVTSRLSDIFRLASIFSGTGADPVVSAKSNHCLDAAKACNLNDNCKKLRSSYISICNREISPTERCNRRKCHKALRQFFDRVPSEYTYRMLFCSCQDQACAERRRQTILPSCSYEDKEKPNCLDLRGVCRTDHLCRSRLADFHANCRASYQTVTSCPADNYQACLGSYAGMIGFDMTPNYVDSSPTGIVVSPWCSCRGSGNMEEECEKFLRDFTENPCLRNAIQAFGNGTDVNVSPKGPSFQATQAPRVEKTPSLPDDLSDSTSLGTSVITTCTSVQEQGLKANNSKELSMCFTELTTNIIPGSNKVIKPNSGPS
Test: staining of 293/EBNA cells transfected with the insert of clone DSW240
Experimental: Plasmid DNAs (the retL2 expression plasmid, a retL1 expression plasmid for a positive control, and an expression plasmid containing an unrelated protein for a negative control) are transfected into 293/EBNA cells (8 ×10^5 on a 60 mm plate) using the lipofection method. After 48 hr, the cells are washed two times with HBHA buffer (0.5 mg/ml BSA, 0.1% NaN_3, 20 mM HEPES (pH 7.0)) and incubated with 20 ug/ml rat Ret/IgG in Tris-buffered saline plus 1 mM MgCl_2 and CaCl_2 for 60–90 min at room temperature. Following this incubation, the cells are washed four times with HBHA buffer and then fixed with 60% acetone/3% formaldehyde/20 mM HEPES (pH 7.0) for 30 sec. […]

binding result: binds
B1: rat Ret/IgG fusion protein (Fc fusion)
chain: EAPLGLYFSRDAYWERLYVDQPAGTPLLYVHALRDAPGEVPSFRLGQYLYGVYRTRLHENDWIHIDAGTGLLYLNQSLDHSSWEQLSIRNGGFPLLTVFLQVFLGSTAQREGECHWPGCARVYFSFINDTFPNCSSFKARDLCTPETGVSFRIRENRPPGTFYQFRMLPVQFLCPNISVKYKLLEGDGLPFRCDPDCLEVSTRWALDRELQEKYVLEAECAVAGPGANKEKVAVSFPVTVYDEDDSPPTFSGGVGTASAVVEFKRKEGTVVATLQVFDADVVPASGELVRRYTSTLLSGDSWAQQTFRVEHTPNETLVQSNNNSVRATMHNYKLVLNRSLSISESRVLQLVVLVNDSDFQGPGSGVLFLHFNVSVLPVTLNLPMAYSFPVNRRARRYAQIGKVCVENCQEFSGVSIQYKLQPSSTNCSALGVVTSTEDTSGTLYVNDTEALRRPECTELQYTVVATDRQTRRQTQASLVVTVEGTYIAEEVGCPKSCAVNKRRPECEECGGLGSPTGRCEWRQGDGKGITRNFSTCSPSTRTCPDGHCDALESRDINICPQDCLRGPIVGGHERGERQGIKAGYGICNCFPDEKKCFCEPEDSQGPLCDALCRT
notes: Made in COS or CHO cells and purified on Protein A; also called Ret/Ig fusion protein; soluble Ret/IgG fusion protein; not shown: Fc portion of human IgG1 (part of the Fc domain, 700 bp Sal1 fragment from plasmid 2-4, originally from pSAB144)
